The values that follow come from patent US20250084155A1 (University of Texas, published 2025).

Where a chain is given by its changes, count along the chain named.

The experiment deals with T1, HSP70 (human HSP70; the antigen of the binning, humanization and variant binding assays) (human, UniProt P0DMV8 1-641, limits assumed).
T1 construct: also called hu HSP70
As to the kind of experiment: BLI, anti-human Fc capture, antigen 100 nM. As for the experimental part:
Binding assays were performed as follows. Antibody variants were immobilized using anti-human Fc onto the surface of a series of biosensors at […]. Antigen, at 100 nM, was passed over the surface to generate a binding response. Binding data for the antibody:antigen interactions were collected at 25° C. on the biosensors. In Table 14, X=610 represents captured antigen value (nM) at the beginning of the dissociation phase (measured at 610 seconds after the biosensor was initially contacted with antigen) and X=1495 represents captured antigen value (nM) at the end of the dissociation phase (measured at 1495 seconds after the biosensor was initially contacted with antigen). In Table 14, antibodies with an X=610 value greater than 0.2 and a % dissociation less than 10% are shown in bold.
In general terms: In BLI a coated tip is dipped into the sample, and binding shifts an interference pattern.

T1 sequence (P0DMV8 whole entry, change not shown): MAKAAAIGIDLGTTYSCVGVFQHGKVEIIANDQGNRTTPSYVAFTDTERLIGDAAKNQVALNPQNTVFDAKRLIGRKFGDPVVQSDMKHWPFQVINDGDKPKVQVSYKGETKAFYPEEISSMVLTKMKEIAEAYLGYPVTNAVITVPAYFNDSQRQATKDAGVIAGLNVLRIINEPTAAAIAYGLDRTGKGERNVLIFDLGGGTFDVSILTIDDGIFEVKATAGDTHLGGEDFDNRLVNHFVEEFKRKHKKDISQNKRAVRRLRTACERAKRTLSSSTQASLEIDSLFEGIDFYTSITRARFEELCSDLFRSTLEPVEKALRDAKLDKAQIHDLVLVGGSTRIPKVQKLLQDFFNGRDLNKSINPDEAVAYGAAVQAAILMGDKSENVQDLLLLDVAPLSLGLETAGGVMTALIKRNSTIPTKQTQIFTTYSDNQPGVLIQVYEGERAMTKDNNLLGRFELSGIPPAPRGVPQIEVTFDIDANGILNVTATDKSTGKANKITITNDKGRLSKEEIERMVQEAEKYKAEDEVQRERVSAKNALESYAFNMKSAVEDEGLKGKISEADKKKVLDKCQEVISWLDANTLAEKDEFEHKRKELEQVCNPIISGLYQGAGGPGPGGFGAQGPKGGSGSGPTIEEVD

B1: h77A-1.2 (antibody, V domains shown)
VH: QIQLVQSGAEVKKPGASVKVSCKASGYTFTNYGMNWVRQAPGQGLEWMGWINTYTGEPRYADDFKGRFTFTTDTSTSTAYMELRSLRSDDTAVYFCARYDHAMDYWGQGTLVTVSS
VL: EIVLTQSPDSLAVSLGERATINCKSSQSLLNSGTRKNYLAWYQQKAGQSPKLLIYWTSTRESGVPDRFSGSGSGTDFTLTIDSLQAEDVAVYYCKQSYTLYTFGGGTKVEIK
notes: captured by anti-human Fc
Turning to B1, the “% Diss” value is -1.81%.

B2: h77A-1.3 (antibody, V domains shown)
VH: B1 VH with R59T, A102R
VL: B1 VL
notes: captured by anti-human Fc
Consider B2, for which the “% Diss” value is 28.7%.

B3: h77A-1.5 (antibody, V domains shown)
VH: B1 VH with R59T
VL: B1 VL with T99N
notes: captured by anti-human Fc
Regarding B3, the “% Diss” value was found to be 25.3%.

B4: h77A-1.15 (antibody, V domains shown)
VH: B1 VH with R59T, A102V
VL: B1 VL
notes: captured by anti-human Fc
For the molecule B4, the “% Diss” value came out at 33%.

B5: h77A-1.13 (antibody, V domains shown)
VH: B1 VH with R59T, A102P
VL: B1 VL
notes: captured by anti-human Fc
For B5, the “% Diss” value came to 13.4%.

B6: h77A-1.24 (antibody, V domains shown)
VH: B1 VH with R59T, A102R
VL: B1 VL with A40T
notes: captured by anti-human Fc
Turning to B6, the “% Diss” value was 33.6%.

B7: h77A-1.26 (antibody, V domains shown)
VH: B1 VH with R59T, S77R, A97T
VL: B1 VL
notes: captured by anti-human Fc
Turning to B7, the “% Diss” value was determined as 11.8%.

B8: h77A-1.23 (antibody, V domains shown)
VH: B1 VH with R59T
VL: B1 VL with A40S, T99S
notes: captured by anti-human Fc
For the molecule B8, the “% Diss” value came out at 24%.

B9: h77A-1.11 (antibody, V domains shown)
VH: B1 VH with R59T
VL: B1 VL with A46P
notes: captured by anti-human Fc
Consider B9, for which the “% Diss” value turned out to be 10.7%.

B10: h77A-1.29 (antibody, V domains shown)
VH: B1 VH with R59T, A102F
VL: B1 VL with L30F
notes: captured by anti-human Fc
B10: the “% Diss” value is 28.3%.

B11: h77A-1.9 (antibody, V domains shown)
VH: B1 VH with R59T, A102T
VL: B1 VL
notes: captured by anti-human Fc
With B11, the “% Diss” value amounted to 18.3%.

B12: h77A-1.20 (antibody, V domains shown)
VH: B1 VH with A9D, R59T, A61S
VL: B1 VL
notes: captured by anti-human Fc
For the molecule B12, the “% Diss” value is 12.1%.

B13: h77A-1.28 (antibody, V domains shown)
VH: B1 VH with A9T, R59T, A102T
VL: B1 VL
notes: captured by anti-human Fc
Turning to B13, the “% Diss” value came out at 18.8%.

B14: h77A-1.25 (antibody, V domains shown)
VH: B1 VH with R59T, A102F
VL: B1 VL with V91I
notes: captured by anti-human Fc
In the case of B14, the “% Diss” value was determined as 23.2%.

B15: h77A-1.21 (antibody, V domains shown)
VH: B1 VH with A9D, R59T
VL: B1 VL with T80S
notes: captured by anti-human Fc
Consider B15, for which the “% Diss” value stood at 10%.

B16: h77A-1.7 (antibody, V domains shown)
VH: B1 VH with R59T, A102F
VL: B1 VL
notes: captured by anti-human Fc
As for B16, the “% Diss” value amounted to 30.2%.

B17: h77A-1.4 (antibody, V domains shown)
VH: B1 VH with R59I
VL: B1 VL
notes: captured by anti-human Fc
As to B17, the “% Diss” value amounted to 31.8%.
